From patent US20120232127A1, “REGULATION OF NEUROTRANSMITTER RELEASE THROUGH ANION CHANNELS” (KOREA INSTITUTE OF SCIENCE AND TECHNOLOGY, priority 2008, published 2012)

Legend:
mBest1 [1] = biological target: T1, mBest1 (Mus musculus, UniProt O88870); assay: CAAC current in astrocytes expressing shRNA; assay type: cell-based; design: endogenous in cells; host or cells: cultured mouse cortical astrocytes
T1 sequence (O88870 1-551): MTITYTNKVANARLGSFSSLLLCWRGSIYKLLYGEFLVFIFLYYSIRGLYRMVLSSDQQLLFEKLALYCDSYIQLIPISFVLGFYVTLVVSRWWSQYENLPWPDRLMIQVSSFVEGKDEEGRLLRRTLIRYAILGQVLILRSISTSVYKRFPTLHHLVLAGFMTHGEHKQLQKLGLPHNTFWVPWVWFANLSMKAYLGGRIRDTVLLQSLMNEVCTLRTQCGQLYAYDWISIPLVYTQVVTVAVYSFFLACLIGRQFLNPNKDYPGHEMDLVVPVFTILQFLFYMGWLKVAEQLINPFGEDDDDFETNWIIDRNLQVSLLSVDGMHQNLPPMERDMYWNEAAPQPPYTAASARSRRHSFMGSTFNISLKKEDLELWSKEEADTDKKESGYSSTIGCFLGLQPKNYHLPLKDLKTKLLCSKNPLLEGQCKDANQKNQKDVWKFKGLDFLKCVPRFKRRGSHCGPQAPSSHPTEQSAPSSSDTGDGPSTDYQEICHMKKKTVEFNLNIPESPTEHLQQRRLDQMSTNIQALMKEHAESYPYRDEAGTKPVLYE
Procedure: For plasmid-based shRNA expression, the following complementary oligonucleotides were annealed and inserted into the HindIII/BglII sites of pSUPER-GFP vector (Oligo Engine):
The efficacy of the construct to interfere with mBest1 expression was tested against heterologously expressed mBest1 in HEK293T cells (ATCC) by measuring specific CAAC currents. For lentivirus-based shRNA expression, lentiviral vector containing mBest1 gene was constructed by inserting synthetic double-strand oligonucleotides 5′-[…] […]-3′ (SEQ ID NO: 30) into pstI-XbaI restriction enzyme sites of shLenti2.4 CMV lentiviral vector (Macrogen) and verified by sequencing. Scrambled oligonucleotides inserted shLenti construct (Macrogen) was used as control. […]
Patch pipettes which have 3-6MΩ of resistance are filled with the standard intracellular solution. […] The concentration of free [Ca^2+]i in the solution was determined (Kuruma, A. & Hartzell, H. C. Bimodal control of a Ca(^2+)-activated Cl(−) channel by difference Ca(^2+) signals. J Gen Physiol 115, 59-80 (2000), which is hereby incorporated by reference for all purposes as if fully set forth herein). […]

mBest1 [2] = biological target: T1, mBest1; assay: Whole cell patch clamp of mBest1-expressing HEK293T cells; assay type: cell-based; design: the full-length mBest1 was cloned from both astrocyte and testis cDNAs and transiently expressed in HEK293T cells; expressed in transfected cells; host or cells: HEK293T cells (ATCC); conditions: HEK293T cells transfected with mBest1 cDNA
Procedure: In order to express mBest1 in mammalian cells, an mBest1 full-length fragment from pGEM-T easy plasmid (6.65 kb, Promega) was subcloned into pcDNA 3.1 (Invitrogen) by HindIII site and NotI site. The plasmid constructs were transfected into HEK293T cells (ATCC) using Effectene transfection reagent (Qiagen). To carry out whole cell patch clamp recordings, 1.5˜2 μg of plasmid, which was obtained by cloning mBest1 in cDNA extracted from mouse brain or cultured astrocytes, and then, subcloning into pcDNA3.1 plasmid (Invitrogen), plus pEGFP-N1 (Clontech) were used to transfect one 35 mm culture dish. One day after transfection, cells were replated onto glass coverslips for electrophysiological recording. Transfected cells were identified by EGFP fluorescence and used for patch clamp experiments within 24-36 hrs.
Patch pipettes which have 3-6MΩ of resistance are filled with the standard intracellular solution. Current voltage curves were established by applying 100- or 200-ms-duration voltage ramps from −100 to +100 mV. The ramp duration was 10 s. […] The concentration of free [Ca^2+]i in the solution was determined (Kuruma, A. & Hartzell, H. C. Bimodal control of a Ca(^2+)-activated Cl(−) channel by difference Ca(^2+) signals. J Gen Physiol 115, 59-80 (2000), which is hereby incorporated by reference for all purposes as if fully set forth herein). […]

B1: mBest1 shRNA: mBest1-specific short hairpin RNA, SEQ ID NO: 3 and 4 (lentiviral: SEQ ID NO: 30), nucleotides 563-582 of mBest1 (nucleic acid)
chain 1: GATCCCCTTGCCAACTTGTCAATGAATTCAAGAGATTCATTGACAAGTTGGCAATTTTTA
chain 2: GGGAACGGTTGAACAGTTACTTAAGTTCTCTAAGTAACTGTTCAACCGTTAAAAATTCGA
With B1 as the molecule, how does the “CAAC current in astrocyte” value (mBest1 [1]) read?
Its value is 49.7±8.3 pA.

What about the “knock-down of mBest1 channel” value (mBest1 [2]) of the same molecule?
Its value is “specific and efficient knock-down”.
